A short description of this data set: yeast display, Sf9 membrane polyspecificity reagent, FACS + sequencing; frameworks hold sequencing errors. The procedure, abridged: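 Nanobodies came from a synthetic yeast display library in Saccharomyces cerevisiae BJ5465, induced with galactose for 36–48 hours and stained for 1 hour at 4 °C with 10% biotinylated, detergent-solubilized Sf9 membrane reagent. Cells were enriched on streptavidin microbeads and then FACS-sorted, with low and high (top ~1%) gates set on anti-HA fluorescence for expression and streptavidin fluorescence for reagent binding. Each polyreactivity label reflects the gate a clone came from. Genes were amplified by colony PCR, sequenced by MiSeq 2 × 250 and filtered by CDR length.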
As for “QVHLVESGGGLVQAGGSLRLSCAASGIIFLVYAMGWYRQAPGKEWELVAGISGSATSTNYADSVKGRFTISRDNAKNTVYLQMNSLKPEDTAVYYCAASYYGYYVPDNSKYGYWGQGTQVTVSS”, the “polyreactivity (PSR sort gate)” value is on record as “low polyreactivity”.

With “QVQLVESGGGLVHAGGSLRLSCAASGFIFWDYAMGWYRQAPGKERELVAAISDSGGDTYYADSVKGRFTISRDNAKNTVNLQMNRLKPEDTAVYYCAAYSPSSRFDRRGYWGQGNQVTVSS”, the “polyreactivity (PSR sort gate)” value is given as “low polyreactivity”.

With “QVQLVESGGGLVQAGGSLRLSCAASGSIFRVYGMGWYRQAPGKERELVAAITWSGGSTYYADSVKGRFTISRDNAKNTVYLQMNSLKPEDTAVYYCAARHKYAFWTAFGNYWGQGTQVTVSS”, the “polyreactivity (PSR sort gate)” value is on record as “high polyreactivity”.

With “QVQLVESVGCLVQAGGSLRLSCAASGFIFGSYTMGWYRPAPGKESELVAAISSSGGNTYYADSVKGRFTISRDHAKNTVYLQMNSLKPEDTAVYYCAVDYIYDDAYNYWGQGTQVTVSS”, the “polyreactivity (PSR sort gate)” value was “high polyreactivity”.

With “QVQLVESGGGLVQAGGSLRLSCAASGRTFSYYAMGWYRQAPGKEREFVAAISSTGTSTYYADSVKGRFTISRDNAKNTVYLQMNSLKPEDTAVYYCNARVATYRLHSKFYYWGQGTQVTVSS”, the “polyreactivity (PSR sort gate)” value was “high polyreactivity”.

Regarding “QVQLVESAGGLVQAGGSLSLSCAASGITFIPNPMGWYRQAPGKERELVAAISISGGRTYYADSVKGRFTISRDNAKNTVYLQMNSLKPEDTAVYYCAADRADFFVIRTIDPYDYWGQGTQVTVSS”, the “polyreactivity (PSR sort gate)” value is recorded as “low polyreactivity”.

In the case of “QVQLVESGGGLVQAGGSLRLSCAASGRTFNYYAMGWYRQAPGKEREFVAANSWSVGSTYYADSVKGRFTISRDNAKNTVYLQMNSLKPEDTAVYYCATEVPVGVQRHIFNYYYWGQGTPVTVSS”, the “polyreactivity (PSR sort gate)” value was “low polyreactivity”.

As to “QVQLVESGGGLVQAGGSLRLSCAASGCIFVSHAMGWYRQAPGKERELVAAITSGDNTKYADSVKGRFTISRDNAKNTVYLQMNSLKPEDTAVYYCAVTYRYQGAGYYWGQGTQVTVSS”, the “polyreactivity (PSR sort gate)” value is on record as “low polyreactivity”.

As for “QVQLVESGGGLVQAGGSLRLSCAASGSIISYNAMGWYRQAPGKERELVAGIDLGDGTTYYADSVKGRFTISRDNAKNTVYLQMNSLKPDDTAVYYCNADIQIRPYGYAGTSTDEGLGYWGQGTQVTVSS”, the “polyreactivity (PSR sort gate)” value is reported as “low polyreactivity”.

With “QVQLVESGGGLVQAGGSLRLSCAASGFTFVVNAMGWYRQAPGKERELVATIRSNGGSTYYADSVKGRFTISRDNAKNTVYLQMNSLKPEDTAVYYCNTDRKHQSGRESAEMDYWGQGTQVTVSS”, the “polyreactivity (PSR sort gate)” value is “low polyreactivity”.

Turning to “QVQLVESGGGLVQAGGSLRLSCAASGITFAYYAMGWYRQAPGTEREWVAAISRSGGGTYYADSVKGRFTISRDNAKNTVYLQMNTLIPEDTAVYYCNKDYPYYNSGPWAYKFDYCGQGTQVTVSS”, the “polyreactivity (PSR sort gate)” value is given as “high polyreactivity”.

“QDQLVESGGGLVQAGGSLRLSCAACGIMFGKYAMGWYREAPGKERELVAAITWSGGRTYYADSVTGRFTISRANAKNTVYLPMNSLKPEDTAVYYCAADVKYGYDWGQGTQVTVSS”: the “polyreactivity (PSR sort gate)” value is reported as “high polyreactivity”.

As to “QVQLVESGGGLVQAGGSLRLSCAASGSTFTPYAMGWYRQAPGKERELVAAISWSDDSTYYADSVKGRFTISRDNAKNTVYLQMNSLKPEDTAVYYCAASAYVDYGVYTYIMDYWGQGTQVTVSS”, the “polyreactivity (PSR sort gate)” value is given as “high polyreactivity”.

Regarding “QVQLVESGGGLVQAGGSLRLSCAASGRTFKKYAMGWYRPAPRKERELVAAITGSGGSTYYADSVKGRFTISRDNAKNTVYLQMNSLKPEDTAVYYCAAYAYGVWHSQDGGNYWGQGTQVTVSS”, the “polyreactivity (PSR sort gate)” value is on record as “low polyreactivity”.

Turning to “QVQLEESGGGLVQAGGSLRLSCAASGIIFRFYTMGWYRQAPGKERELVAVITWSGGSTYYADSVKGRFSISRDNAMNTVYLQMNSLKPEATAVYYCNAEYTYGNSVYKYDYWGQGTQVTVSS”, the “polyreactivity (PSR sort gate)” value is listed as “low polyreactivity”.

Turning to “QVQLVESGGRLVQAGGSLRLSCAASGSIFAWSMGWYRPAPGKERELVAAISSGGSTYYADSVKGRFTISRDNAKNTVYFQMNSLKPEDTAVYYCAAGLISRFSRYYFWGQGTQVTVSS”, the “polyreactivity (PSR sort gate)” value is “high polyreactivity”.

Regarding “QVQLVESGGGLVQAGGSHRLSCAASGSILSYYAMGWYRQAPGQEREFVAAIRTRGGSTYYADSVKGRFTISRDNAKNTVYLQMYSLKPEDTAVYYFAARTRPDRVRQGRYYYWGQGTQVTVSS”, the “polyreactivity (PSR sort gate)” value is “high polyreactivity”.

For “QVQLVESGGGLVQAGGSLRLICAASGSTFYPNAMGWYRPAPGKERELVAAITSAGSTYYADSVKGRFTISRDNAKNTVYLQMNSLKPEDTAVYYCAKRRASRYDWGQGTQVTVSS”, the “polyreactivity (PSR sort gate)” value is reported as “high polyreactivity”.

Turning to “QVQLVESGGGLVQAGGSLRLSCAASGYTFSYYDMGWYRQAPGKERELVAGISKRGGSTRYADSVKGRFTISRDNAKNTVYLQMNSLKPEDTAVYYCNRLPYLHYAGRLTNYDYWGQGTQVTVSS”, the “polyreactivity (PSR sort gate)” value is given as “high polyreactivity”.

As to “QVQLVESGGGLVQAGGSLRLSCAASGRTFRKYAMGWYRQAPGKERELVAAISQRGGTTYYADSVKGRFTISRDNAKNTVYLQINSLKPEDTAVYYCNVAWVGVSLVYGPFEYDYWGQGTQVTVSS”, the “polyreactivity (PSR sort gate)” value was “high polyreactivity”.

Take “QVQLVESGGGLVQAGGSLRLSCAASGSIFRSYAMGWYRQAPGKERELVAAITNGGSTYYADSVKGRFTISRDNAKNTVYLQINSLKPEDTAVYYCAAARYTYWFYLVKKTGYYWGQGTQVTVSS”: the “polyreactivity (PSR sort gate)” value is on record as “high polyreactivity”.

On to “QVQLVQSGGGLVQAGGSLRLSCAASGYIFNFNPMGWNRQAPGKERELVAVISDRDDTTYYADSVKGRFTISRDNAKNTVYLQMNSMKPEDTAVYYCAAVGDTYVDDQYDYWGQGTQVTVSS”, for which the “polyreactivity (PSR sort gate)” value is “low polyreactivity”.

In the case of “QVQHVESGGGLVQAGGSLRLSCAASGFIFYRYTMVWYRQAHGKERELVAAISQSGGNTYYADSVKGRFTISRDNAKNTVYLLMNSLKPEDTAVYYCNAVYYYYAGNYWGQGTQVTVSS”, the “polyreactivity (PSR sort gate)” value is on record as “high polyreactivity”.

Consider “QVQLVESCLGLVQAGGSLRLSFADSGIIIMFYSMGWYRQATGKERELLAAISASGGRTYYADSVKGRFTISRDNAKNTVYLQMNSLKPEDTAVYYCARLLPTPGKPILDYWGQGTQVTVSS”, for which the “polyreactivity (PSR sort gate)” value is reported as “low polyreactivity”.

For “QVQLVESGGGLVQAGGSLRLSCAASGRTFLVNAMGWYRQAPGKEREFVAAITSRSGRTNYADSVKGRFTISRDNAKNTVYLQSNSLKPEDTAVYYCNAEGYTVKYWYSRYDYWGQGTQVTVSS”, the “polyreactivity (PSR sort gate)” value was “high polyreactivity”.

With “QVQLVDSGGGLVQAGGSLRLSCAASGTIILVYAMGWYRQAPGKERELVARITNGTGSTYYADSVKGRFTISRDNAKNTVYLQMNSLKPEDTAVYYCATGQGSSYRSGPRWYPNAFGYWGQVTQVTVSS”, the “polyreactivity (PSR sort gate)” value is given as “high polyreactivity”.

As for “QVQLVESGGGLVQAGGSLRLSCAASGSTFGFNAMGWYRPAPGKEREFVAAINTSGGNTYYADSVKGRFTISRDNAKNTVYLQMNSLKPEDTAVYYCNAREGHLYGYPYGYWGQGTQVTVSS”, the “polyreactivity (PSR sort gate)” value is “low polyreactivity”.

As for “QVQLVESGGGLVQAGGSLRLSCAASGSIFWPYTMGWSRQAPGKECELVAAITSTDSTDYADSVKGRFTISRDNAKNTVYLQMNSLKPEDTAVYYCNADYQSRTGSGIYTDHPYDYWGQGTQVTVSS”, the “polyreactivity (PSR sort gate)” value is given as “low polyreactivity”.

On to “QVQLVESGGGLVQAGGSLRLSCAAYAMGWYRQAPGKERELVAAMSSSGGSTYYADSVKGRFTISRDNAKTTVYLQMTSLKPEDTAVYYCARDPDTYFFPPTGYYTSGFDSWGQGTQVTVSS”, for which the “polyreactivity (PSR sort gate)” value was “low polyreactivity”.

Regarding “QVQLQESGGCLVQAGGSQRLSCAASGYIFYFQYMGWYRQAQGKEREFVAAISDGANTNYADSVKGRFTISRDNAKNTEYLKMNSLKPEDTAVYYCAVYADENYYYIYWGQGTQVTVSS”, the “polyreactivity (PSR sort gate)” value is listed as “low polyreactivity”.

Regarding “QVQLVESAGGLVQAGGSLSLSCAASGRTFSYYAMGWYRHARGKERELVAAISRRGGSTYYADSVKGRLTISRDNAKNTVYLQMISLKPEDTAVDYCNARGRSTVGGGFYYWGLGTQVTVSS”, the “polyreactivity (PSR sort gate)” value is “high polyreactivity”.

With “QVQLVESGGGIVQAGGSLRLSCAASGNIFSYKAMGWYRQAPRTERELVDAISRSGGSTYYADSVKGRFTISRDNAKNTVYLQMNSLKPEDTAVYYCAADWRGRKYDYWGQGTQVTVSS”, the “polyreactivity (PSR sort gate)” value is “high polyreactivity”.

On to “QVQLVESGGGLVQAGGSLRISCAASGIIFAYAMGWYRQAPGKERELVAAISGRDGSTYYADSVKGRFTISRDNAKNTVYLQMISLKQEDTAVYFCAAGDYYLQDNYWGQGTQVTVSS”, for which the “polyreactivity (PSR sort gate)” value was “low polyreactivity”.

On to “QVQLVESGGRLVQAGGSLRLSCAASGRTFLHNAMGWYRQAPGKERELVAAIDSGGTTHYADSVKGRFTISRDNAKNTVYLQMNSLKPEDTAVYNCAARPTRGHWWYGNWGQGTQVTVTS”, for which the “polyreactivity (PSR sort gate)” value was “low polyreactivity”.

For the sequence “QVQLVESGGGLVQAGGSLRLSCAASGITFDGYDMGWYRQAPGKEREMVATIDSGGITYYADSVKGRFTISRDNAKNTVYLQMNSLKPEDTAVYYCNADEWYYNFDIVEFDYWGQGTQVTVSS”, the “polyreactivity (PSR sort gate)” value is on record as “low polyreactivity”.

With “QVQLVESGGGLVQAGGSLRLSCAASGSIFRYYTMGWYRQAPGKERELVAAISSRGGSTYYADSVKGRFTISRDNAKNTVYLQMNSLKPEDTAVYYCNVLVKRAYQYTYGVDYWGQGTQVTVSS”, the “polyreactivity (PSR sort gate)” value was “high polyreactivity”.

As to “QVQLVESGGGLVQAGGSLRLSCAASGGTIYLNAMGWYRQAPRKERELVAGITWGGGRTYYADSVKGRFTISRDNAKNTVYLQMNSLKPEDTAVYYCASGAWRGPYSGYYYWGQGTQVTVSS”, the “polyreactivity (PSR sort gate)” value was “low polyreactivity”.

On to “QVQLVESGGGLVQAGGSLRLSCAASGIIFYYYVLGWYRQAPGKERELVAAISARGGSTTYADSVKGRFTISRDNAKNTVYLQMISLKPEDTAVYYCAADVSYWRHGYQLSYDYWGQVTQVTVSS”, for which the “polyreactivity (PSR sort gate)” value is given as “high polyreactivity”.

As to “QVQLVESGGGLVQAGGSLRLSCAASGRIFPTNAMGWYRQAPGKERELVAAIPVSGGSTYYADSVKGRFTISRDNAKKTVYLQMNSLKPEDTAVYYCAVDDRASVGSRLDHWGQGTQVTVSS”, the “polyreactivity (PSR sort gate)” value is on record as “low polyreactivity”.

For “QLQLHESGGGLVQAGGGLRLICAASGSISSTVFMGWYRQAPGKEREPVAAIAPCTTTYYADSLKGRFTISRDNAKNTVYLQKNSLRPEDTAVYYCAVFTDNRVAFLYWGQGTQVTLSS”, the “polyreactivity (PSR sort gate)” value is “low polyreactivity”.

For the origin of these results see the nanobody polyreactivity screen of Harvey et al. (2022).
